Measurements from paper PMC9700808, “Poly ADP-ribosylation of SET8 leads to aberrant H4K20 methylation in mammalian nuclear genome” (Communications Biology, 2021).

T1: His-SET8 (UniProt Q9NQR1-2 1-352)
T1 sequence: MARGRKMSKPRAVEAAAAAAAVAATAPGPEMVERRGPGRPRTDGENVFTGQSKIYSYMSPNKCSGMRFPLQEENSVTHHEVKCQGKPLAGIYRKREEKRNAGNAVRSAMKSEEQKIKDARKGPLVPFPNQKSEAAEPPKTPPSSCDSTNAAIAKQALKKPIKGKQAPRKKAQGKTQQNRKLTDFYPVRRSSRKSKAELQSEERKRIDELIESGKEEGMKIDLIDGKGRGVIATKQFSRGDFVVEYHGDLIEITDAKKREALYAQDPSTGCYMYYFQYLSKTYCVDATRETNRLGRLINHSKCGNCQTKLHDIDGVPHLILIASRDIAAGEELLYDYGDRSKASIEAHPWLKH


Key:
[1] = molecular target: T2, full-length recombinant PARP1 protein (UniProt P09874 1-1014); assay: pull-down; GST-SET8 fusions on glutathione-Sepharose beads, full-length recombinant PARP1 in solution; 1X PBS with 0.1% Triton X-100, 100 µg/ml BSA, 4 °C, 1 h; washes with 1% Triton X-100; western blot with anti-PARP1; details: both partners purified
T2 construct: PARP1, full-length recombinant protein bought from Active Motif; also called purified PARP1; PARP1 recombinant enzyme; source: bought: Active Motif (# 81037)

His-SET8 = molecular target: T1, His-SET8; assay: EMSA; 2 mM MgCl2; GRB buffer: 20 mM HEPES pH 7.5, 10% glycerol, 25 mM KCl, 0.1 mM EDTA, 1 mM DTT, 2 mM MgCl2, 0.2% NP40; on ice 10-15 min; 6% TBE gel, 0.5x TBE, 4 C; details: protein: recombinant; tags: His; label: Cy3 (end); hairpin, 10 bp stem with AAA loop

T2 sequence (P09874 whole entry, the tested form may be a part): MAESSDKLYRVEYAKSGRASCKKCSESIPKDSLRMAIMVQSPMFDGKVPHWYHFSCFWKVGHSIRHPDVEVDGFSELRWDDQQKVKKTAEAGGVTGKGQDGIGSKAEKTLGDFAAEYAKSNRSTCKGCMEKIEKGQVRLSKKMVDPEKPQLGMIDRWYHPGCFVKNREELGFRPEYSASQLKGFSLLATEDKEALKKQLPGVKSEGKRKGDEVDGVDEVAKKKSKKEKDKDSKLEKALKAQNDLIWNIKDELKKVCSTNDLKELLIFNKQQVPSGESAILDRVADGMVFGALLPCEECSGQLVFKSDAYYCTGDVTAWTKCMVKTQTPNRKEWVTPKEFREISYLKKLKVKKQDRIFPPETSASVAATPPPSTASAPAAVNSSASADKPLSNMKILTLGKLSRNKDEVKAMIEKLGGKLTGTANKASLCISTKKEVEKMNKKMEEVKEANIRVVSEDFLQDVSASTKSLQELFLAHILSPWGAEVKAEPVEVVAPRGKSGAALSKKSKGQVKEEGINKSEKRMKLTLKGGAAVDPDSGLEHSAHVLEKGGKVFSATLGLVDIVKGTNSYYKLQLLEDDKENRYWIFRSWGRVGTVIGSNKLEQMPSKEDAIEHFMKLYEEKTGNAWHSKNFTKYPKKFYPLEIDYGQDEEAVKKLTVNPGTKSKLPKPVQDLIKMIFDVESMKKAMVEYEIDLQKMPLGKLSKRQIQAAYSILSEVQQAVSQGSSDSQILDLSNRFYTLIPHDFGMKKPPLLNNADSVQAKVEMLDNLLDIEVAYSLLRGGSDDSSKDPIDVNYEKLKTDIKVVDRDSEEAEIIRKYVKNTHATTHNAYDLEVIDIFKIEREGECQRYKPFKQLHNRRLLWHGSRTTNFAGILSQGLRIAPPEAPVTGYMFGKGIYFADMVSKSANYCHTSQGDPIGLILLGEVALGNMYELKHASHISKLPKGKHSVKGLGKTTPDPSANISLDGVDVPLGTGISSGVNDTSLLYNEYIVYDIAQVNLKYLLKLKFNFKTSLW

Binder | binding result [1] | Kd (His-SET8) [nM]
GST-SET8 N-terminal 1-98 (domain or fragment, UniProt Q9NQR1-2 1-98, looked up, SET8 (KMT5A) residues 1-98; vector pGEX5X.1; primers in Supplementary File 1; also called N-terminal 1–98 amino acids; source: E. coli ER2566, purified, on glutathione-Sepharose beads) MARGRKMSKPRAVEAAAAAAAVAATAPGPEMVERRGPGRPRTDGENVFTGQSKIYSYMSPNKCSGMRFPLQEENSVTHHEVKCQGKPLAGIYRKREEK | binds | –
GST-SET8 disorder domain 80-230 (domain or fragment, UniProt Q9NQR1-2 80-230, looked up, SET8 (KMT5A) disorder domain, residues 80-230; printed numbering runs to 352; vector pGEX5X.1; primers in Supplementary File 1; also called GST-SET8 DD; disorder domain (DD); source: E. coli ER2566, purified, on glutathione-Sepharose beads) EVKCQGKPLAGIYRKREEKRNAGNAVRSAMKSEEQKIKDARKGPLVPFPNQKSEAAEPPKTPPSSCDSTNAAIAKQALKKPIKGKQAPRKKAQGKTQQNRKLTDFYPVRRSSRKSKAELQSEERKRIDELIESGKEEGMKIDLIDGKGRGV | binds | –
full-length GST fusion SET8 (GST-SET8 FL) (enzyme, UniProt Q9NQR1-2 1-352, looked up, SET8 (KMT5A), full length; printed numbering runs to 352 (fragments 157-352, 175-352); vector pGEX5X.1; source: E. coli ER2566, purified, on glutathione-Sepharose beads) MARGRKMSKPRAVEAAAAAAAVAATAPGPEMVERRGPGRPRTDGENVFTGQSKIYSYMSPNKCSGMRFPLQEENSVTHHEVKCQGKPLAGIYRKREEKRNAGNAVRSAMKSEEQKIKDARKGPLVPFPNQKSEAAEPPKTPPSSCDSTNAAIAKQALKKPIKGKQAPRKKAQGKTQQNRKLTDFYPVRRSSRKSKAELQSEERKRIDELIESGKEEGMKIDLIDGKGRGVIATKQFSRGDFVVEYHGDLIEITDAKKREALYAQDPSTGCYMYYFQYLSKTYCVDATRETNRLGRLINHSKCGNCQTKLHDIDGVPHLILIASRDIAAGEELLYDYGDRSKASIEAHPWLKH | binds | –
GGGAATTCCCAAAGGGAATTCCC (structured_DNA) [EcoRI hairpin oligonucleotide] | – | 1600 ± 600
